T1: rhesus CD137Fc recombinant protein (Sino Biologicals cat no. 90847-K02H) (rhesus; human, UniProt H9Z8K9 24-186)
T1 construct: Bought protein; also called rhesus CD137-human IgG1 Fc tagged protein; not shown: human IgG1 Fc tag
T1 sequence: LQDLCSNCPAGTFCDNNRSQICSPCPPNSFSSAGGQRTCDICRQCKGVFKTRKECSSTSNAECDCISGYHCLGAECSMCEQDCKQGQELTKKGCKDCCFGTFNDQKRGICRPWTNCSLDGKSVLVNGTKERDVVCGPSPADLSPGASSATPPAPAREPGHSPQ

B1: 4.1(PSMA-binding VH)-6GS-2.1 (bispecific antibody)
chain: EVQLVESGGGVVQPGRSLRLSCAASGFSFSGYGMHWVRQAPGKGLEWVAYISYDGSNKYYADSVKGRFTISRDNSKNTLYLQMNSLRAEDTAVYYCAKDPAWGLRLGESSSYDFDIWGQGTMVTVSSGGGGSGGGGSGGGGSGGGGSGGGGSGGGGSEVQLVESGGGLVKPGGSLRVSCAASGFTFSDYYMSWFRQAPGKGLEWVSYISGSGDIIDYADSVKGRFTISRDNAKNSLYLQMNNLRAEDTAVYHCAREDSRLTGTTDFDNWGQGTLVTVSS
notes: tandem VH, PSMA x CD137; also called 4.1-6GS-2.1; not shown: His tag
B2: 4.1(PSMA-binding VH)-6GS-1.1 (bispecific antibody)
chain: EVQLVESGGGVVQPGRSLRLSCAASGFSFSGYGMHWVRQAPGKGLEWVAYISYDGSNKYYADSVKGRFTISRDNSKNTLYLQMNSLRAEDTAVYYCAKDPAWGLRLGESSSYDFDIWGQGTMVTVSSGGGGSGGGGSGGGGSGGGGSGGGGSGGGGSEVQLVESGGGLVQPGGSLRLSCAASGFTFSSHWMTWFRQAPGKGLEWVAHIKEDGSEKYYEDSVEGRFTVSRDNAKNSVYLQMNSLRAEDTAVYYCARGGDGYSDSHFGVDVWGQGTTVTVSS
notes: tandem VH, PSMA x CD137; also called 4.1-6GS-1.1; not shown: His tag
B3: PSMA binding single VH domain antibody 4.1 (VHH)
VHH: EVQLVESGGGVVQPGRSLRLSCAASGFSFSGYGMHWVRQAPGKGLEWVAYISYDGSNKYYADSVKGRFTISRDNSKNTLYLQMNSLRAEDTAVYYCAKDPAWGLRLGESSSYDFDIWGQGTMVTVSS
notes: human single VH domain, PSMA specific
B4: Humabody VH 1.113 (VHH)
VH: EVQLVESGGGLVQPGGSLRLSCAASGFTLSNYWMNWVRQAPGKGLEWVANINQDGSERYYVDSVKGRFTISRDNAKNSLYLQMNSLRAEDTAVYYCARGGEGYGVDHYGLDVSGQGTTVTVSSHHHHHH
notes: human single VH domain
B5: 4.1-6GS-1.1-6GS-VH (MSA) (bispecific antibody)
chain: EVQLVESGGGVVQPGRSLRLSCAASGFSFSGYGMHWVRQAPGKGLEWVAYISYDGSNKYYADSVKGRFTISRDNSKNTLYLQMNSLRAEDTAVYYCAKDPAWGLRLGESSSYDFDIWGQGTMVTVSSGGGGSGGGGSGGGGSGGGGSGGGGSGGGGSEVQLVESGGGLVQPGGSLRLSCAASGFTFSSHWMTWFRQAPGKGLEWVAHIKEDGSEKYYEDSVEGRFTVSRDNAKNSVYLQMNSLRAEDTAVYYCARGGDGYSDSHFGVDVWGQGTTVTVSSGGGGSGGGGSGGGGSGGGGSGGGGSGGGGSQVQLVESGGGLVQPGGSLRLSCAASGFTFSSYAMSWVRQAPGKGLEWVATISDSGSSADYADSVKGRFTISRDNSKNTLYLQMNSLRAEDTAVYYCARGRYNWNPRALGIWGQGTMVTVSS
notes: trispecific tandem VH (PSMA, CD137, mouse serum albumin); also called 4.1-6GS-1.1-VH (MSA); 4.1-6GS-1.1-6GS-MSA; not shown: His tag

Assays:
[1] = target: T2, human CD137-human Fc chimeric protein (Acro Biosystems cat no. 41B-H5258) (human, UniProt Q07011 24-186); assay: BLI (Octet RED384), CD137-Fc amine-coupled to AR2G sensors, 1:1 model
T2 construct: Bought protein; The Octet Protein G and Biacore experiments name no catalogue number; also called human CD137Fc recombinant protein; human CD137-Fc recombinant protein; not shown: human IgG1 Fc tag
Procedure: (§1) The kinetics of monovalent and bispecific Humabody VH were determined on a ForteBio Octet RED 384 instrument. To study the interaction with the antigens, CD137-Fc tag protein (Acro Biosystems cat no. 41B-H5258) or PSMA-his (R&D Systems cat no. 4234-ZN) was immobilised onto AR2G biosensors (ForteBio cat no. 18-5082) by amine coupling. Monovalent VH and bispecific molecules were serially diluted (typically 1:2 dilution series starting between 12-25 nM, at the highest concentration) in kinetics buffer (0.1% BSA, 0.02% Tween, 1×PBS) and binding to the immobilised proteins was studied during the association and dissociation phases. PSMA binding was measured using 180 seconds association and 600 seconds dissociation phases. CD137 binding was measured 180 seconds association and 600 seconds dissociation phases. Reference subtracted data were fitted to a 1:1 binding model using the ForteBio Octet Data Analysis software.

[2] = target: T3, human CD137 expressed on the surface of CHO cells (human, UniProt Q07011 24-255); assay: FMAT, CHO human CD137 cells
T3 construct: Also used for the Jurkat reporter cells that express human CD137 (functional rows); also called CHO human CD137 cells; CHO huCD137
Procedure: (§2) Binding of His-tagged molecules to CHO human CD137, CHO parent, CHO human PSMA, DU145 PSMA and DU145 parent cells was assessed using Fluorescence Microvolume Assay Technology (FMAT). All reagents were prepared in FMAT assay buffer (pH 7.4) containing PBS, 0.1% Bovine Serum Albumin, 0.05% Sodium Azide. Serially diluted samples were transferred into 384 well black clear-bottomed assay plates (Costar cat. no. 3655) and incubated for a minimum of 2 hours at room temperature with 1.5 nM Anti-His (Millipore cat. no. 05-949), […] Goat Anti-Mouse Alexa Fluor-488 (Jackson ImmunoResearch cat. no. 115-545-071) and 2000 cells/well pre-stained with DRAQ5 (Thermo Scientific cat. no. 62251). Fluorescence emission was then measured on the TTP Mirrorball plate reader in the FL2 (502 nm-537 nm) and FL5 (677-800 nm) channels following excitation at 488 nm and 640 nm. Data was gated on FL5 perimeter and peak intensity and the FL2 median mean fluorescence intensity of the gated data used for determination of VH binding. Monovalent CD137 specific Humabody® VH, bispecific and trispecific molecules with a CD137 binding arm bound to CHO CD137 expressing cells. Monovalent PSMA specific Humabody® VH, bispecific and trispecific molecules with a PSMA binding arm bound to PSMA expressing cells.

[3] = target: T4, human PSMA expressed on cells (human, UniProt Q04609 1-750); assay: FMAT, DU145 PSMA cells
T4 construct: One molecule for both cell lines (CHO human PSMA, DU145 PSMA); the cell line stands under assay; also called CHO human PSMA; CHO PSMA
Procedure: as §2

[4] = target: T4, human PSMA expressed on cells; assay: FMAT, CHO human PSMA cells
Procedure: as §2

[5] = target: T3, human CD137 expressed on the surface of …; assay: FMAT ligand inhibition, CD137 Ligand on CHO human CD137 cells
Procedure: In parallel to the binding assay, periplasmic extracts were tested for their ability to inhibit the interaction of human CD137 ligand protein with CHO human CD137 cells in an FMAT format. Total binding controls containing diluted periplasmic extract sample buffer and non-specific binding controls containing excess non-Fc tagged competitor were set up on each plate for data normalisation. Fluorescence signal was measured using the TTP Mirrorball and the FL2 median mean fluorescence intensity of gated used for the data normalisation. The data was expressed as a % of the total binding control (% control) after subtraction of the background signal determined from the non-specific binding control wells.
The ability of purified Humabody VH to inhibit the binding of CD137 Ligand to CHO human CD137 cells was measured in the FMAT ligand inhibition assay essentially as described in Example 6. VH inhibited the binding of human CD137 Ligand to human CD137.

[6] = target: T5, CD137 on pre-stimulated human CD8+ T cells (human, UniProt Q07011 24-255); assay: flow cytometry, PMA/ionomycin-stimulated human CD8+ T cells, mean of 2-3 donors
T5 construct: also called pre-stimulated CD8+ cells; primary T cells
Procedure: Binding to primary T cells was measured using flow cytometry. Peripheral blood mononuclear cells (PBMCs) were isolated from human blood by density gradient centrifugation then CD8+ T cells purified using a negative selection isolation kit according to the manufacturer's protocol (Miltenyi Biotech cat no 130-042-401). T-cells were stimulated PMA/Ionomycin for 48-72 hours in RPMI media supplemented with 10% FBS, 2 mM Glutamine, 1× Pen/Strep. Cells were transferred into 96 well plates, blocked for 10 mins with staining buffer (PBS/1% BSA/0.05% Sodium Azide) then incubated with serially diluted VH in staining buffer (PBS/1% BSA) for 30 mins-1 hour at 4° C. Cells were washed by centrifugation then VH binding detected using Anti His antibody (Millipore 05-949) and Goat Anti Mouse Alexa Fluor-488 (Jackson ImmunoResearch cat no. 115-545-071). A Live Dead near IR stain (Molecular Probes cat no. L10119) was used for discrimination of live cells. After further washing cells were fixed and fluorescence measured by flow cytometry.

[7] = target: T4, human PSMA expressed on cells; assay: dual binding cell ELISA: the titrated step is the binding of the bispecific to CHO human PSMA cells; readout is bound CD137huFc (fixed 1 nM) with anti human Fc-HRP, so the value reflects dual engagement
Procedure: Dual target engagement of CD137 and PSMA by the bispecific molecules was assessed using an ELISA format. CHO-PSMA cells (20000/well) were seeded into 96 well plates (Greiner cat no. 353872) in Hams F12 supplemented with L-Glutamine+Blasticidin+Tetracycline and incubated at 37° C. with 5% CO₂ overnight. All subsequent steps were performed at room temperature and included washes with PBS between each step. Plates were blocked with PBS/0.1% BSA for 1 hour then serially diluted Humabody® VH were added and allowed to bind for 1 hour. Following removal of unbound VH, 1 nM CD137huFc (Acro Biosystems cat no. 41B-H5258) was added to the wells and incubated for 1 hour. A 1:3000 dilution of Anti-huFc-HRP (Jackson ImmunoResearch cat no. 109-035-098) was subsequently added for 1 hour and plates developed by addition of TMB. The reaction was stopped by addition of 0.5M sulphuric acid and plates read on BMG PheraStar at Absorbance 450 nm.

[8] = target: T6, PSMA-his (R&D Systems cat no. 4234-ZN) (human, UniProt Q04609 44-750); assay: BLI (Octet RED384), PSMA-his amine-coupled to AR2G sensors, 1:1 model
T6 construct: Bought protein; also called Human PSMA; not shown: His tag
Procedure: as §1

[9] = target: T1, rhesus CD137Fc recombinant protein …; assay: SPR (Biacore T200), single cycle kinetics, rhesus CD137-Fc captured on Protein G chip, mean ± SD; rhesus CD137Fc
Procedure: (§3) The Biacore T200 instrument was used to study the interaction between VH with human and rhesus CD137-human IgG1 Fc tagged protein by surface plasmon resonance (SPR). Single cycle kinetics assays used to evaluate the kinetics and affinity of the interaction. Experiments were performed at 25° C. in HBS-EP+ assay buffer with a flow rate of 30 μl/minute. A Protein G chip was used to capture the Fc tagged recombinant CD137 diluted to 2 μg/ml to one of the flow cells over 7 seconds. A second flow cell without any captured CD137 was used as the reference cell. A five point, three-fold dilution series of VH was made with a top concentration of 60 nM. The binding kinetics were followed by flowing these over the chip surface. The contact time for each of the binding steps was 180 seconds and the dissociation step was 1800 and 3600 seconds for rhesus and human CD137 respectively. After each run, the sensors were regenerated with glycine pH 1.5 to remove the captured CD137. The data was fitted to a 1:1 binding model after double reference subtraction using the Biacore T200 Evaluation software.

[10] = target: T2, human CD137-human Fc chimeric protein …; assay: SPR (Biacore T200), single cycle kinetics, CD137-Fc captured on Protein G chip, mean ± SD; human CD137Fc
Procedure: as §3

T6 sequence (Q04609 44-750 limits assumed): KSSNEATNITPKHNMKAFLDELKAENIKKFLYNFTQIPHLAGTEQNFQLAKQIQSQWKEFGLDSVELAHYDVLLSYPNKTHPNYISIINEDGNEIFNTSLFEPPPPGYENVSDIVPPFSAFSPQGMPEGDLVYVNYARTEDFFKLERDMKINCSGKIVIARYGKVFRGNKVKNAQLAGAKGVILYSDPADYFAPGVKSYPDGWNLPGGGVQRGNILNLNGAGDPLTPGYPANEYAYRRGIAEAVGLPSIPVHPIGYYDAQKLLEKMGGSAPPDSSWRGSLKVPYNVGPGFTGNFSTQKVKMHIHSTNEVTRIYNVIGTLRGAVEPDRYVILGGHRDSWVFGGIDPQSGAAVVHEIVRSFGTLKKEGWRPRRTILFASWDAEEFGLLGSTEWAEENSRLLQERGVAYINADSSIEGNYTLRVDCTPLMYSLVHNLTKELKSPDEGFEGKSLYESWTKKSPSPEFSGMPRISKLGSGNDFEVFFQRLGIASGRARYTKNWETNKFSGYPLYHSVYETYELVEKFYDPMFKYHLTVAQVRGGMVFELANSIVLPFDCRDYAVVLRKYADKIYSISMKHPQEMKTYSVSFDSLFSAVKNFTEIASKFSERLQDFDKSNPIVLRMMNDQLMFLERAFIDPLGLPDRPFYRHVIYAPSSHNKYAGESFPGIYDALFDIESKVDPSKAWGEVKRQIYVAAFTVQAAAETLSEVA
T3 sequence (Q07011 24-255 limits assumed): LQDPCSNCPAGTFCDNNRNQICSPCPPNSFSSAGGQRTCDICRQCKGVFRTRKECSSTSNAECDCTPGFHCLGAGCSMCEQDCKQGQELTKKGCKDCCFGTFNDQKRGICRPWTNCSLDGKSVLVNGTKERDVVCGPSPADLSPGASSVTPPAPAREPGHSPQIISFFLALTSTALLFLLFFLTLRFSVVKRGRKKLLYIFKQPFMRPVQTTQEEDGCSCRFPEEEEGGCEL
T4 sequence (Q04609 whole entry): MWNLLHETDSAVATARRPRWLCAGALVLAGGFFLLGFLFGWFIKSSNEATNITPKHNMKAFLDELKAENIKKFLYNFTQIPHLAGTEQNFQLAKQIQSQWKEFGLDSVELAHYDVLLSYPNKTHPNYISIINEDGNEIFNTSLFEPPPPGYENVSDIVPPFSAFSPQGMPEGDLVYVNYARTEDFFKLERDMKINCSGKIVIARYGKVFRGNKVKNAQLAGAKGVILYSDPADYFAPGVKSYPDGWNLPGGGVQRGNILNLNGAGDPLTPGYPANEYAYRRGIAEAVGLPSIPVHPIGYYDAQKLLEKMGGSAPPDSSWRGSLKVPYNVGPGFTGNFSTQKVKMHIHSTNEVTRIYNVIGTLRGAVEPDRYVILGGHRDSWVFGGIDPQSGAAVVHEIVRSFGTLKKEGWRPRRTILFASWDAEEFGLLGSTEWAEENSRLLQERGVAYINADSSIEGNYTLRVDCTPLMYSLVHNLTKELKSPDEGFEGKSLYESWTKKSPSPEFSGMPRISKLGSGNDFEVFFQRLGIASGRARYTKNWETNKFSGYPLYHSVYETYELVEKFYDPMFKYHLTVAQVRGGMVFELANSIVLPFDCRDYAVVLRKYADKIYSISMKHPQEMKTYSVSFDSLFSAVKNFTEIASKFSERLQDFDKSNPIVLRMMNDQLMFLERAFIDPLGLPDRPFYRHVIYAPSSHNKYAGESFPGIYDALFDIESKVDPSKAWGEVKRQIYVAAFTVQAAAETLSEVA
T5 sequence (Q07011 24-255 limits assumed): as the sequence (Q07011 24-255 limits assumed) above

| Binder | Kd [1] [nM] | koff [1] [s⁻¹] | kon [1] [M⁻¹ s⁻¹] | EC50 [2] [nM] | EC50 [3] [nM] | EC50 [4] [nM] | IC50 [5] [nM] | EC50 [6] [nM] | EC50 (read off the curve) [7] [nM] | Kd [8] [nM] | koff [8] [s⁻¹] | kon [8] [M⁻¹ s⁻¹] | Kd [9] [nM] | koff [9] [s⁻¹] | kon [9] [M⁻¹ s⁻¹] | Kd [10] [nM] | koff [10] [s⁻¹] | kon [10] [M⁻¹ s⁻¹] |
| --- | --- | --- | --- | --- | --- | --- | --- | --- | --- | --- | --- | --- | --- | --- | --- | --- | --- | --- |
| B1 | 4.8 | 0.0026 | 580000 | 0.97 | 0.39 | 0.28 | 13 | 3 | ~1 | 0.66 | 0.00033 | 500000 | – | – | – | – | – | – |
| B2 | 0.73 | 0.00031 | 410000 | 0.43 | 0.21 | 0.19 | 2.5 | 0.73 | ~0.8 | 1.3 | 0.00054 | 430000 | – | – | – | – | – | – |
| B3 | – | – | – | – | 0.19 | 0.17 | – | – | – | 0.53 | 0.00016 | 310000 | – | – | – | – | – | – |
| B4 | – | – | – | 0.09 | – | – | 0.73 | – | – | – | – | – | 0.27 | 0.00028 | 1.1e+06 | 0.085 | 0.0003 | 3.6e+06 |
| B5 | – | – | – | 0.58 | 0.36 | 0.32 | – | – | – | – | – | – | – | – | – | – | – | – |

— US20200362047A1 (CRESCENDO BIOLOGICS, published 2020)
